# Results published in the nanobody polyreactivity screen of Harvey et al. (2022).
# Test: yeast display, Sf9 membrane polyspecificity reagent, FACS + sequencing; frameworks hold sequencing errors
# In short: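 Polyreactivity labels are assigned by the sorting gate from which each nanobody was recovered. The gates were low and high (top ~1%), set on anti-HA fluorescence for expression and streptavidin fluorescence for reagent binding. Before sorting, galactose-induced (36–48 hours) yeast display cells were stained for 1 hour at 4 °C with 10% biotinylated, detergent-solubilized Sf9 membrane reagent.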
row,Sequence,polyreactivity (PSR sort gate)
1,QVQLVESGGGLVQAGGSLRLSCAASGRTFYTNGMGWYRQAPGKEREFVAGITYRGGGTYYADSVKGRFTISRDNAKNTVYLQMNSLKPEDTAVYYCNTRWILGRRFYYWGQGTQVTVSS,high polyreactivity
2,QVQLVESGGGLVQAGGSLRLSCAASGFTFRRYAMGWYRQAPGKERELVAAISYSGGITYYADSVKGRFTISRDNAKNTVYLQMNSLKPEDTAVYYCAAESVWTWYYTTAGMDYWGQGTQVTVSS,high polyreactivity
3,QVQLVESGGGLVQAGGSLRLSCAASGGIFWYYTMGWYRQAPGKERELVATISSGGRTYYADSVKGRFTISRDNAKNTVYLQMNSLKPEDTAVYYCAAVGWYNDYYWGQGTQVTVSS,high polyreactivity
4,QVQLVESGGGLVQAGGSLRLSCAASGRIFVGYAMGRNIQAPGKERELVAAISRDGDNTFYADSVKGRFTISRDNAKNTVYLQMNSLKPEDTAVYYCAVDYWVWSCSAYAYDYYWGQVTQVTVSS,low polyreactivity
5,QVQLVESGGCLVQAGGSLRLSCAASGFIFDPYVMGWYIQAPGKERELVAAITYNGGRTYYADSVKGRFTISRDNAKNTVYLQMNSLKPEDTAVYYCNKDYRIGQTWYDYWGQVTQVTVSS,low polyreactivity
6,QVQLEESGGGLVQAGGSLRLSCAASGRTFALYAMGWYRQAPGKERELVASISWRGGSTYYADSVKGRFTISRDNAKNTVYLQMNSLKPEDTAVYYCAADTWSYGPLNYRLEYWGQGTQVTVSS,low polyreactivity
7,QVQLQESGGGLVQAGGILRLSCAACGNIFPSAVMGWYRQALGKEREFVATINSGSNTYYADSVKGRFTISRDNAKNTVYLQMNSLNLEDNAVYYCAAYFKLPAWHTYWGQGTQVTVSS,low polyreactivity
8,QVQLVESGGGLVQAGGSLRISCAASGRTFWKYAMGWYRQAPGKERELVAAITASGARTYYADSVKGRFTISRDNAKNTVYLQMNSLKPEDTAVYYCNAGSVSDRQMDYWGQGTQVTVSS,low polyreactivity
9,QVQLVESGGGLVQAGGSLRLSCPASGRTFKRYAMGWYRQEPGKEMELVASISWRGGSTYYADSVKGRFTISRDNAKNTVYLQMNSLKPEDTAVYYCAAEGPGNVYKLDYWGQGTQVTVSS,low polyreactivity
10,QVQLVESGGGLVQAGGSLRLSCAASGSTFYPNAMGWYRQAPGKERELVAAISWSGGRTYYADSVKGRFTISRDNAKNTVYLQMNSLKPEDTAVYYCNAARYPSSWYYKLDYWGQGTQVTVSS,high polyreactivity
11,QVQLVESGGGLVQAGGSLRLSCAASGSTFVVNAMAWYRQAPGKERELVAVISYSGDSTYYADSVKGRFTISRDNAKNTVYLQMNSLKPEDSAVYYCNADYYDESNWGQGTQVTVSS,low polyreactivity
12,QVQLVESGGGLVQAGGSLGLSCAASGRMFGYYTLGWYRQAPGKERELVAAITSSGGRTYYADSVKGRFTISRDYAKNTVYLQMNSLKPEDTAVYYCAADVEWTSRGSYYRYYYWGQGTQVTVSS,low polyreactivity
13,QVQLVESGGGLVQAGGSLRLSCAAYGFTFASNVMGWYRQAPGKDRELVAAITSGASTNYADSVKGRFTISRDNAKNTVYLQMNSLKPVDTAVYYCAAGRQWYVFYEFDYWGQGTQVTVSS,high polyreactivity
14,QVQLVESGGGLVQAGGSLRLSCAASGGTFRTYTMGWYRQAPGRVRELVAGISSRGGSTYYADSVKGRFTISRDNAKKTLYLQMNSLKPEDTAVYNCAVRHLNKRRDDYWGQGTQVTVSS,high polyreactivity
15,QVQVVESGGGLVQAGGSLRLSCAASGFIFLRYDMGWYRQAPGKERELVAAINGNGGSTYYADSVKGRFTISRDNAKNTFYLQMNSLKPEDTAVYYCNARRRTYARNYGYWGHGTQVTVSS,high polyreactivity
16,QVQLVESGGGLVQAGGSLRLSCAASGFIFYDYAMGWYRQAPGKERELVAVITRGGSTYYADSVKGRFTISRDNAKNTVYLQMNSLKPEDTAVYYCAAYWFTPGFTFDYWGQGTQVTVSS,low polyreactivity
17,QVQLVESGGGLVQAGGSLRLSCAASGRIFFRNAMGWYRQAPGKERELVAAITWNGGSTYYADSVKGRFTISRDIAKNTVYLQMNSLKPEDTAVYYCNKAGVSYRSQYYYWGQGTQVTVSS,high polyreactivity
18,QVQLVESGGGLVQAGGSLRLSCAASGSIFGGYTMGWSRQAPGKERELVAGITISGGSTYYADSVKGRFTISRDNAKNTVYLQMNSLKPEDTAVYYCAAVSFVVSSWGYGYWGQGTQVTVSS,low polyreactivity
19,QVQLVESGRGLVQAGGSLRISCAASGRIFFYYTMGWYRQAPGRERELVAAINSTGATNYADSVKGRFTISRDNAKNTVYLQMNSLKPEDTAVYYCNAGTRYIFLYPPFLGAAFDYWGQGTQVTVSS,low polyreactivity
20,QVQLVESGGGLVQAGGSLRLSCAASGSTFDSYAMGWSRQAPGKERELVARINDSGGSTYYADSVKGRFTISRDNAKNTVYLHMNSLKPEDTAVYYCNAYSWYFLPNMDYWGQGTQVTVSS,low polyreactivity
21,QVQLVESGGGLVQAGGSLRLSSAVSGNTFGPYDMGWYRQAPGKERELVAGNTSGGSTYYADSVKGRFTISLDNAMNTVYLQMNSLKPEDTAVYYCAADYFLWVYWYDYWGQGTQVTVSS,high polyreactivity
22,QVQLVESGGGLVQAGGSLRLSCAASGRTLQRNAMGWYRQAPGKERELVADISWSGASTYYADSVKGRFTISRDNAKNTVYLQMNSLKPEDTAVYYCAATYIDRGNIYDYWGQGTQVTVSS,high polyreactivity

row,Sequence,polyreactivity (PSR sort gate)
1,QVQLVESGGGLVQAGGSLRLSCAASGSIFYYTNTMGWYRQAPGKERELFAAISSSGGTTYADSVKGRFTISRDYSKNTVYLQMNSLKPEDSAVYYCALDCVLKTYVRGTYDYWGQGTQVTVSS,high polyreactivity
2,QVQLVESGGGLVQAGGILRLSCAASGIIFGYYAMGWYRQAPGKERELVAAISSIGGSTYYADSVKGRFTISRDNAKNTVYLQMNSLKPEDTAVYYCAAKYYGRYYRYLGSSFDYWGQGTQVTVSS,high polyreactivity
3,QVQLVESGGGLVQAGGSLRLSCAASGSIFRFYAMGWYRQAPGKERELVAAITSGGSTNYADSVKGRFTISRDNAKNTVYLQMNSLKPEDTAVYYCAAELVYFFIYDYWGQGTQVTVSS,low polyreactivity
4,QVQLVESGGGLVQAGGSLRLSCAASGSIFSYYAMGWYRQAPGKERELVAAINWSGGRTYYADSVKGRFTISRDNAKNTVYLQMNSLKPEDTAVYYCNAVSNFWFIVFYGNQPKTDDYWGQGTQVTVSS,high polyreactivity
5,QVQLVDSGGGLVQAGGSLRLSCAASGRTFYTNAMGWYRQAPRKERQLVAAITRGGSTYYADSVKGRFTISRDNAKNTVYLQMNSLKPEDTAVYYCAADGRFRSHTFYYWGQGTQVTVSS,high polyreactivity
6,PVQLVESGGGLVQAGGSLRLSCAASGRIFKPYAMGWYRQAPGKERELVAAISGSGTRTYYADSVKGRFTISRANAKNTVYLQMNSLKPEDTAVYFCAAAYYSTYRNRMDYWGQGTQVTVSS,high polyreactivity
7,QVQLVESGRGLVQAGGSLSLSCAASGSILYIYAMVWNIQAPGKERELVDSINSGGSTNYADSVKGRFTISRDNAKNTVYLEMNSLIPEDTAVYYCAKSIGNPPQGFKDFDYWGQGTLVTVSS,low polyreactivity
8,QFQLVESGGGLVQAGGSLRLSCAASGRIFRGNAMGWYRQAPGKERELVAAILTGVSTYYADSVKGRFTISRDNAKNTVYLQMNSLKPEDTAVYYCAAERPSRRSGYEYWGQGTQVTVSS,low polyreactivity
9,QVQLVESGGGLVQAGGSLRLICAASGYIFYAYALGWYRQAPGKERELVAAITDNGVSTFYADSVKGRFTISRDNAKNTVYLHMKSLKPEETAVYYCATSSTHSRGDEYWGQGTQVTVSS,low polyreactivity
10,QVQLVESGGGLVQAGGSLRISCAASGSTFYIYAMGWYRPAPGKERELVAAIRRSGGSTYYADSVKGRFTISRDNAKNTVYLQMNSLKPEDTAVYYCATRYLWRPRPYDYWGQGTQVTVSS,high polyreactivity
11,QVQLVESGGGLVQAGGRLRLSCAASGSISGYYAMGWYRQAPGKERELVASIRYTGARTYYADSVKGRFTISRDNAKNNVYLQMNSLKPEDTAVYYCAADVKRDRVWGGDYWGQGTQVTVSS,low polyreactivity
12,QVQIVDSGGGLVQAGGSLRLSCAASGLIIGPYAMGWYRQAPGKERELVAAITSGTTTYYADSVKGRFTISRDNAKNTVYLQMNSLKPEDTAVYYCAAYWPVNSQPIQIGYLYDYWGQGTQVTVSS,low polyreactivity
13,QDQLVESGGGLVQAGGSLRLSCASYGSTFGANAMGWYRQAHGKARELVATISSGGRTYYADSVKGRFTISRDNAKITVYLQMNSLKPEDTAVYYCNAGADYTYVYISVYVLYDYLGQGTQVTVSS,low polyreactivity
14,QVQLGESGGGLVQAGGSLRLSCVASGFIFRGNAMGWYRQAPGKERELVATISSGGNTYYADSVKGRFTISRDNAKNTVYLQINSLKPEDTAVYYCNASDGLPTKLNVYVEFDYWGQGTQVTVSS,low polyreactivity
15,QVQLVESGGGLVQAGGSLRLSCAASGGTFRYYAMGWYRQAPGKERELVATINWSGGSTYADSVKGRFTISRDNAKNTVYLQMNSLKPEDTAVYYCNAGWWIPVYYWDEWYIYNYWGQGTQVTVSS,high polyreactivity
16,QDQLVESGGGLVQAGGSLRLSCAASGRTFSYYTMGWYRQPPGKERELVARISNRGTNTYYADSVKGRFTISRDNAKNTVYLQLNSLKPEDTAVYYCAKYYYPSIVGYDSWGQGTQVTVSS,low polyreactivity
17,QVQLVESGGGLVQAGGSLRLSCAASGFIFTFYAMGWYRQAPGKEREFVASIDWGDGSTYYADSVKGRFTISRDNAKNTVYLQMNSLKPEDSAVYYCAHDYDGYVWDTEYDYWGQGTQVTVSS,low polyreactivity
18,QVQLVESGGGLVQAGGSLRLSCAASGSTFGVYAMGWYRQAPGKERELVAAINYSGRTYYADSVKGRFTISRDNAKNTVYLQMNSLKPEDTAVYYCAADWYWSRHEYEYWGQGTQVTVSS,high polyreactivity
19,QVQLVESGGGLVQAGGSLRLSCAASGLIFTGNVMGWYRQAPGKERELVAAISRSGGRTYYADSVKGRFTISRDNAKNTVYLQMNSLKPEDTAVYYCNKVSPERVYYGSYFRYYYWGQGTQVTVSS,high polyreactivity
20,QVQLLESGGGLVHAGGSLRLSCAASGRIFLGNAMGWYIQAPRKERELVASISRGGGTTYYADSVKGRITISRDNAKNTVYLQMNRLKPEDTAVYYCAARVYYVVQHGKYVYWGQGTQVTVSS,high polyreactivity
21,QVQLVESGGGLVQAGGSLRLTCAASGFTFRKNVMGWYRQAPGKERELVAFISSSGGSTYYADSVKGRFTISRDNEKNTGYIPMNSLKPEETAVYYCNAGRYGSNLEYWGQATQVTVSS,low polyreactivity
